Experiments:
[1] = biological target: RecA D112R (E. coli)
[2] = biological target: RecA D112R, fluorescein-labelled (E. coli); assay: fluorescence polarisation; 20 nM fluorescein-labelled RecA titrated with pol V in solution, no ssDNA (inactive complex); pol V standard reaction buffer (20 mM Tris pH 7.5, 8 mM MgCl2, 5 mM DTT, 0.1 mM EDTA, 25 mM sodium glutamate, 4% glycerol), 25°C; apparent Kd, one-site specific binding
[3] = biological target: RecA D112R N113R, fluorescein-labelled (E. coli); assay: as above

primer utilization in the pol V transactivation assay (RecA* on poly dT, hairpin primer-template, 1 h at 37°C) [1]: 27%
Kd [2]: 250 nM
Kd [3]: 250 nM
B1: DNA polymerase V (UmuD′2C) (complex)
chain 1: MFALCDVNAFYASCETVFRPDLWGKPVVVLSNNDGCVIARNAEAKALGVKMGDPWFKQKDLFRRCGVVCFSSNYELYADMSNRVMSTLEELSPRVEIYSIDEAFCDLTGVRNCRDLTDFGREIRATVLQRTHLTVGVGIAQTKTLAKLANHAAKKWQRQTGGVVDLSNLERQRKLMSALPVDDVWGIGRRISKKLDAMGIKTVLDLADTDIRFIRKHFNVVLERTVRELRGEPCLQLEEFAPTKQEIICSRSFGERITDYPSMRQAICSYAARAAEKLRSEHQYCRFISTFIKTSPFALNEPYYGNSASVKLLTPTQDSRDIINAATRSLDAIWQAGHRYQKAGVMLGDFFSQGVAQLNLFDDNAPRPGSEQLMTVMDTLNAKEGRGTLYFAGQGIQQQWQMKRAMLSPRYTTRSSDLLRVK
chain 2: GFPSPAADYVEQRIDLNQLLIQHPSATYFVKASGDSMIDGGISDGDLLIVDSAITASHGDIVIAAVDGEFTVKKLQLRPTVQLIPMNSAYSPITISSEDTLDVFGVVIHVVKAMR

Source: publication PMC4374754
